From US10329331B2, “Polypeptides” (priority 2010, dated 2019) come the findings set out here.

Each structure is given as a SMILES string.

In data set [1] the test system is CD3+ CD4+ T cells in peripheral blood mononuclear cells (PBMC).
A short description of data set [2]: physchem. In kind it is physicochemical. As for the experimental part: Amicon Ultra centrifugal filter units, cut off of 3 kDa, (Millipore, Cat. No. UFC800324) were prerinsed with 2 ml NaPi buffer by centrifugation at 4000 g for 20 min in a swinging bucket rotor centrifuge (Multifuge, Heraeus). […] A 25 μl sample was removed (UF sample 1) for further analysis and the rest of the sample was transferred to a second centrifugal filter unit. The centrifugation and sample removal were repeated three times with spinning times of 8, 9 and 20 min respectively (UF sample 2, 3 and 4 respectively). Absorbance readings were performed using a NANODROP ND-1000 Spectrophotometer and by diluting UF samples 1-4 in NaPi buffer 2, 4, 6 and 12 times respectively. The concentrations were calculated using the extinction coefficient 1 Abs 280=1.955 mg/ml. Gel filtration was performed on a 1100 HPLC system (Agilent Technologies) using a Superdex75 10/300 GL column (GE Healthcare) which had been equilibrated in NaPi buffer. 10 μl of each UF sample were applied to the column; NaPi buffer was used as running buffer and the flow rate was 0.5 ml/min. A chromatogram of the molecular weight standard ovalbumin (GE Healthcare), injected at a concentration of 5 mg/ml was collected as well. Concentrations were determined by integrating the area under the curve.

A short description of data set [3]: Small animal PET whole body distribution of 68Ga-labeled polypeptide. The class given is in vivo. To be noted: rat, after intravenous injection, PET over […]. The procedure: The labeling mixture was incubated at 90° C. for 15 min before cooling, and the labeled protein was isolated by size exclusion purification on a NAP-5 column eluted with physiologically buffered saline.
A rat (277 g) was anesthetized with isoflurane (initially 5%, then 2% blended with 7:3 air/O2), controlled by an E-Z vaporizer using Microflex non-rebreather masks from Euthanex Corporation, and was kept on a heating pad (37° C.) while lying within a microPET Focus120 system (Siemens, CTI Concorde Microsystems). ^68Ga-PEP08296, 33 MBq, was dispensed in a syringe, diluted with saline to 0.5 ml and injected via the tail vein. Data were acquired from the whole body by moving the bed in a constant bed motion protocol for 1.5 h. Data were processed with MicroPET Manager and corrected for randoms, dead time and decay. Images were reconstructed by standard 2D filtered back projection using a ramp filter and evaluated using Inveon Research Workplace (Siemens Medical Solutions) software.

Data set [4] concerns IgG molecules present in normal human sera. As to the kind of experiment: Serum response analysis: ELISA of human serum IgG binding to albumin binding polypeptides. Conditions: 126 positive sera diluted 50 times; polypeptide 2 μg/ml on albumin coated plates. The procedure:
Each serum sample was tested as a singlet.
In general terms: In an ELISA, binding on a coated surface is turned into a signal by an enzyme label.

Turning to `CC[C@H](C)[C@H](NC(=O)[C@H](C)NC(=O)[C@H](CC(=O)O)NC(=O)[C@H](CCCCN)NC(=O)[C@H](CC(C)C)NC(=O)[C@H](C)NC(=O)[C@H](CCC(=O)O)NC(=O)[C@@H](NC(=O)CNC(=O)[C@H](CCC(=O)O)NC(=O)[C@@H](NC(=O)[C@@H](NC(=O)[C@H](CCCCN)NC(=O)[C@H](C)NC(=O)[C@H](CCCCN)NC(=O)[C@H](CC(=O)O)NC(=O)[C@@H](NC(=O)[C@H](CC(C)C)NC(=O)[C@H](CCCNC(=N)N)NC(=O)[C@H](CCCCN)NC(=O)[C@H](Cc1ccc(O)cc1)NC(=O)[C@H](Cc1ccccc1)NC(=O)[C@H](CC(=O)O)NC(=O)[C@H](CO)NC(=O)[C@@H](NC(=O)CNC(=O)[C@H](Cc1ccc(O)cc1)NC(=O)[C@H](CO)NC(=O)[C@H](CC(=O)O)NC(=O)[C@H](CC(C)C)NC(=O)[C@H](CCC(=O)O)NC(=O)[C@H](C)NC(=O)[C@H](CC(N)=O)NC(=O)[C@H](C)NC(=O)[C@H](C)NC(=O)[C@H](CCC(=O)O)NC(=O)[C@H](CCCCN)NC(=O)[C@H](C)NC(=O)[C@H](CCC(=O)O)NC(=O)[C@H](C)NC(=O)[C@H](CC(C)C)NC(=O)CN)C(C)C)[C@@H](C)CC)[C@@H](C)O)C(C)C)C(C)C)C(=O)N[C@@H](CC(C)C)C(=O)N[C@@H](C)C(=O)N[C@@H](C)C(=O)N[C@@H](CC(C)C)C(=O)N1CCC[C@H]1C(=O)O` [PEP07914], in data set [1], the immunogenicity classification result was “non-immunogenic”. For `CC[C@H](C)[C@H](NC(=O)[C@H](C)NC(=O)[C@H](CC(=O)O)NC(=O)[C@H](CCCCN)NC(=O)[C@H](CC(C)C)NC(=O)[C@H](C)NC(=O)[C@H](CCC(=O)O)NC(=O)[C@@H](NC(=O)CNC(=O)[C@H](CCC(=O)O)NC(=O)[C@@H](NC(=O)[C@@H](NC(=O)[C@H](CCCCN)NC(=O)[C@H](C)NC(=O)[C@H](CCCCN)NC(=O)[C@H](CC(=O)O)NC(=O)[C@@H](NC(=O)[C@H](CC(C)C)NC(=O)[C@H](CCCNC(=N)N)NC(=O)[C@H](CCCCN)NC(=O)[C@H](Cc1ccc(O)cc1)NC(=O)[C@H](Cc1ccccc1)NC(=O)[C@H](CC(=O)O)NC(=O)[C@H](CO)NC(=O)[C@@H](NC(=O)CNC(=O)[C@H](Cc1ccc(O)cc1)NC(=O)[C@H](CO)NC(=O)[C@H](CC(=O)O)NC(=O)[C@H](CC(C)C)NC(=O)[C@H](CCC(=O)O)NC(=O)[C@H](C)NC(=O)[C@H](CC(N)=O)NC(=O)[C@H](C)NC(=O)[C@H](C)NC(=O)[C@H](CCC(=O)O)NC(=O)[C@H](CCCCN)NC(=O)[C@H](C)NC(=O)[C@H](CCC(=O)O)NC(=O)[C@H](C)NC(=O)[C@H](CC(C)C)NC(=O)[C@H](CO)NC(=O)CN)C(C)C)[C@@H](C)CC)[C@@H](C)O)C(C)C)C(C)C)C(=O)N[C@@H](CC(C)C)C(=O)N[C@@H](C)C(=O)N[C@@H](C)C(=O)N[C@@H](CC(C)C)C(=O)N1CCC[C@H]1C(=O)O` [PEP07986], the solubility (usually how much of the substance goes into solution per volume) is “more than 42 mg/ml” in data set [2] (pH 7.2) and at least 42 mg/mL in data set [2] (pH 7.2, aqueous buffer). Consider `CC[C@H](C)[C@H](NC(=O)[C@H](C)NC(=O)[C@H](CC(=O)O)NC(=O)[C@H](CCCCN)NC(=O)[C@H](CC(C)C)NC(=O)[C@H](C)NC(=O)[C@H](CCC(=O)O)NC(=O)[C@@H](NC(=O)CNC(=O)[C@H](CCC(=O)O)NC(=O)[C@@H](NC(=O)[C@@H](NC(=O)[C@H](CCCCN)NC(=O)[C@H](C)NC(=O)[C@H](CCCCN)NC(=O)[C@H](CC(=O)O)NC(=O)[C@@H](NC(=O)[C@H](CC(C)C)NC(=O)[C@H](CCCNC(=N)N)NC(=O)[C@H](CCCCN)NC(=O)[C@H](Cc1ccc(O)cc1)NC(=O)[C@H](Cc1ccccc1)NC(=O)[C@H](CC(=O)O)NC(=O)[C@H](CO)NC(=O)[C@@H](NC(=O)CNC(=O)[C@H](Cc1ccc(O)cc1)NC(=O)[C@H](CSC1CC(=O)N(CCNC(=O)CN2CCN(CC(=O)O)CCN(CC(=O)O)CCN(CC(=O)O)CC2)C1=O)NC(=O)[C@H](CC(=O)O)NC(=O)[C@H](CC(C)C)NC(=O)[C@H](CCC(=O)O)NC(=O)[C@H](C)NC(=O)[C@H](CC(N)=O)NC(=O)[C@H](C)NC(=O)[C@H](C)NC(=O)[C@H](CCC(=O)O)NC(=O)[C@H](CCCCN)NC(=O)[C@H](C)NC(=O)[C@H](CCC(=O)O)NC(=O)[C@H](C)NC(=O)[C@H](CC(C)C)NC(=O)[C@H](CO)NC(=O)CN)C(C)C)[C@@H](C)CC)[C@@H](C)O)C(C)C)C(C)C)C(=O)N[C@@H](CC(C)C)C(=O)N[C@@H](C)C(=O)N[C@@H](C)C(=O)N[C@@H](CC(C)C)C(=O)N1CCC[C@H]1C(=O)NCC(=O)O` (single isomer, unassigned) [^68Ga-PEP08296, metal not drawn], for which the plasma clearance result in data set [3] is “very slow”.

For the compound `CC[C@H](C)[C@H](NC(=O)[C@H](Cc1c[nH]cn1)NC(=O)[C@H](CC(C)C)NC(=O)[C@H](CCCCN)NC(=O)[C@H](CC(C)C)NC(=O)[C@H](C)NC(=O)[C@H](CCC(=O)O)NC(=O)[C@@H](NC(=O)CNC(=O)[C@H](CCC(=O)O)NC(=O)[C@@H](NC(=O)[C@@H](NC(=O)[C@H](CCCCN)NC(=O)[C@H](C)NC(=O)[C@H](CCCCN)NC(=O)[C@H](CC(N)=O)NC(=O)[C@@H](NC(=O)[C@H](CC(C)C)NC(=O)[C@H](CCCNC(=N)N)NC(=O)[C@H](CCCCN)NC(=O)[C@H](Cc1ccc(O)cc1)NC(=O)[C@H](Cc1ccccc1)NC(=O)[C@H](CC(=O)O)NC(=O)[C@H](CO)NC(=O)[C@@H](NC(=O)CNC(=O)[C@H](Cc1ccc(O)cc1)NC(=O)[C@H](CCCCN)NC(=O)[C@H](CC(=O)O)NC(=O)[C@H](CC(C)C)NC(=O)[C@H](CCC(=O)O)NC(=O)[C@H](CCCNC(=N)N)NC(=O)[C@H](CC(N)=O)NC(=O)[C@H](C)NC(=O)[C@H](CC(C)C)NC(=O)[C@@H](NC(=O)[C@H](CCCCN)NC(=O)[C@H](C)NC(=O)[C@H](CCC(=O)O)NC(=O)[C@H](C)NC(=O)[C@H](CC(C)C)NC(=O)[C@H](CO)NC(=O)[C@H](CO)NC(=O)CN)C(C)C)C(C)C)[C@@H](C)CC)[C@@H](C)O)C(C)C)C(C)C)C(=O)N[C@@H](CC(C)C)C(=O)N[C@@H](C)C(=O)N[C@@H](C)C(=O)N[C@@H](CC(C)C)C(=O)N1CCC[C@H]1C(=O)O` [PEP06923], in data set [4], the “reactivity with IgG in human sera (average OD-value, percentage of sera with IgG binding)” value was “highest average OD-value and the highest percentage of serum with IgG binding”. For the compound `CC[C@H](C)[C@H](NC(=O)[C@H](C)NC(=O)[C@H](CC(=O)O)NC(=O)[C@H](CCCCN)NC(=O)[C@H](CC(C)C)NC(=O)[C@H](C)NC(=O)[C@H](CCC(=O)O)NC(=O)[C@@H](NC(=O)CNC(=O)[C@H](CCC(=O)O)NC(=O)[C@@H](NC(=O)[C@@H](NC(=O)[C@H](CCCCN)NC(=O)[C@H](C)NC(=O)[C@H](CCCCN)NC(=O)[C@H](CC(=O)O)NC(=O)[C@@H](NC(=O)[C@H](CC(C)C)NC(=O)[C@H](CCCNC(=N)N)NC(=O)[C@H](CCCCN)NC(=O)[C@H](Cc1ccc(O)cc1)NC(=O)[C@H](Cc1ccccc1)NC(=O)[C@H](CC(=O)O)NC(=O)[C@H](CO)NC(=O)[C@@H](NC(=O)CNC(=O)[C@H](Cc1ccc(O)cc1)NC(=O)[C@H](CSC1CC(=O)N(CCNC(=O)CN2CCN(CC(=O)O)CCN(CC(=O)O)CCN(CC(=O)O)CC2)C1=O)NC(=O)[C@H](CC(=O)O)NC(=O)[C@H](CC(C)C)NC(=O)[C@H](CCC(=O)O)NC(=O)[C@H](C)NC(=O)[C@H](CC(N)=O)NC(=O)[C@H](C)NC(=O)[C@H](C)NC(=O)[C@H](CCC(=O)O)NC(=O)[C@H](CCCCN)NC(=O)[C@H](C)NC(=O)[C@H](CO)NC(=O)[C@H](C)NC(=O)[C@H](CC(C)C)NC(=O)CN)C(C)C)[C@@H](C)CC)[C@@H](C)O)C(C)C)C(C)C)C(=O)N[C@@H](CC(C)C)C(=O)N[C@@H](C)C(=O)N[C@@H](C)C(=O)N[C@@H](CC(C)C)C(=O)N1CCC[C@H]1C(=O)O` (stereo partly drawn) [PEP07968], in data set [1], the immunogenicity classification entry is listed as “non-immunogenic”.
